Laboratory results as given in IntAct's records for PubMed 22510990.

B1: Protein Niban 1 (Homo sapiens), Q9BZQ8 (parent)
chain: MGGSASSQLDEGKCAYIRGKTEAAIKNFSPYYSRQYSVAFCNHVRTEVEQQRDLTSQFLKTKPPLAPGTILYEAELSQFSEDIKKWKERYVVVKNDYAVESYENKEAYQRGAAPKCRILPAGGKVLTSEDEYNLLSDRHFPDPLASSEKENTQPFVVLPKEFPVYLWQPFFRHGYFCFHEAADQKRFSALLSDCVRHLNHDYMKQMTFEAQAFLEAVQFFRQEKGHYGSWEMITGDEIQILSNLVMEELLPTLQTDLLPKMKGKKNDRKRTWLGLLEEAYTLVQHQVSEGLSALKEECRALTKGLEGTIRSDMDQIVNSKNYLIGKIKAMVAQPAEKSCLESVQPFLASILEELMGPVSSGFSEVRVLFEKEVNEVSQNFQTTKDSVQLKEHLDRLMNLPLHSVKMEPCYTKVNLLHERLQDLKSRFRFPHIDLVVQRTQNYMQELMENAVFTFEQLLSPHLQGEASKTAVAIEKVKLRVLKQYDYDSSTIRKKIFQEALVQITLPTVQKALASTCKPELQKYEQFIFADHTNMIHVENVYEEILHQILLDETLKVIKEAAILKKHNLFEDNMALPSESVSSLTDLKPPTGSNQASPARRASAILPGVLGSETLSNEVFQESEEEKQPEVPSSLAKGESLSLPGPSPPPDGTEQVIISRVDDPVVNPVATEDTAGLPGTCSSELEFGGTLEDEEPAQEEPEPITASGSLKALRKLLTASVEVPVDSAPVMEEDTNGESHVPQENEEEEEKEPSQAAAIHPDNCEESEVSEREAQPPCPEAHGEELGGFPEVGSPASPPASGGLTEEPLGPMEGELPGEACTLTAHEGRGGKCTEEGDASQQEGCTLGSDPICLSESQVSEEQEEMGGQSSAAQATASVNAEEIKVARIHECQWVVEDAPNPDVLLSHKDDVKEGEGGQESFPELPSEE

Variants of: B1
Settings: with npm_human NPM1, P06748
npm_human NPM1, P06748, sequence (P06748 whole entry): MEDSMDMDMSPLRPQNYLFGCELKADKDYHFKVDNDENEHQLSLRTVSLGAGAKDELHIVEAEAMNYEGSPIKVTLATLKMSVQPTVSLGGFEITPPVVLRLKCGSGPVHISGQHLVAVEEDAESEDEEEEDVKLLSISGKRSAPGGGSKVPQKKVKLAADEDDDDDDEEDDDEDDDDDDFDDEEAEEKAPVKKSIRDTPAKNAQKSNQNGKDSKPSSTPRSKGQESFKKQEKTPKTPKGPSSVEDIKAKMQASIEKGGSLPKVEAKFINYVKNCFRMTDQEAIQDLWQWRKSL

| effect of a mutation on the interaction | Variant |
| --- | --- |
| increasing interaction | S602D |

Variants of: B1
Settings: with npm_human NPM1, P06748
Remark: another data set of the same source

| effect of a mutation on the interaction | Variant |
| --- | --- |
| decreasing interaction | S602A |
